Experimental data: US20250019437A1

T1: human TREM2 (triggering receptor expressed on myeloid cells 2) (human) (UniProt Q9NZC2)
T1 sequence (looked up): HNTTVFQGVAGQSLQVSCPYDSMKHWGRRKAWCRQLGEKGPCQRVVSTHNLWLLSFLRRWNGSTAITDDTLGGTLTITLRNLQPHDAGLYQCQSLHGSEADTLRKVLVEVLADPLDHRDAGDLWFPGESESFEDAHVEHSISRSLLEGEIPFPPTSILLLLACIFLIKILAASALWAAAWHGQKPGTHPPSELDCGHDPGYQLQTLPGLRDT


Columns and labels:
[1] = biological target: T1, human TREM2 (triggering receptor expressed on myeloid cells 2) (human); test: 2nd screen, 10 nM Ab
[2] = biological target: T1, human TREM2 (triggering receptor expressed on myeloid cells 2) (human); test: 1st screen, 10 nM Ab
[3] = biological target: T1, human TREM2 (triggering receptor expressed on myeloid cells 2) (human); test: 2nd screen, 2 nM Ab

Binder	Binding Signal (fold over 6E7 parental antibody) [1] [fold]	Binding Signal (fold over 6E7 parental antibody) [2] [fold]	Binding Signal (fold over 6E7 parental antibody) [3] [fold]
6E7 antibody affinity modulation variant V41 (antibody, V domains shown) VH: EVQLVQSGAEVKKPGESLKISCKGSGYSFTSYWIAWVRQMPGKGLEWMGTIYPGDSDTRYSPSFQGQVTISADKSISTAYLQWSSLKASDTAMYFCARQRTFYYDSSDYFDYWGQGTLVTVSS VL: DIQMTQSPSSVSASVGDRVTITCRASQGISSWLAWYQQKPGKAPKLLIYAASSLQNGVPSRFSGSGSGTDFTLTISSLQPEDFATYFCQQADSFPRTFGQGTKLEIK	1.72	1.74	0.58
6E7 antibody affinity modulation variant V1 (antibody, V domains shown) VH: EVQLVQSGAEVKKPGESLKISCKGSGYSFTSSWIAWVRQMPGKGLEWMGIIYPGDSDTRYSPSFQGQVTISADKSISTAYLQWSSLKASDTAMYFCARSRTFYYDSSDYFDYWGQGTLVTVSS VL: DIQMTQSPSSVSASVGDRVTITCRASQGISSWLAWYQQKPGKAPKLLIYAASSLTNGVPSRFSGSGSGTDFTLTISSLQPEDFATYFCQQADSYPRTFGQGTKLEIK	1.92	1.68	1.29
6E7 antibody affinity modulation variant V74 (antibody, V domains shown) VH: EVQLVQSGAEVKKPGESLKISCKGSGYSFASYWIAWVRQMPGKGLEWMGIIYPGDSDVRYSPSFQGQVTISADKSISTAYLQWSSLKASDTAMYFCARGRTFYYDSSDYFDYWGQGTLVTVSS VL: DIQMTQSPSSVSASVGDRVTITCRASQGISSWLAWYQQKPGKAPKLLIYAASSLQLGVPSRFSGSGSGTDFTLTISSLQPEDFATYFCQQADSFPRTFGQGTKLEIK	4.01	3.94	2.54
6E7 antibody affinity modulation variant V64 (antibody, V domains shown) VH: EVQLVQSGAEVKKPGESLKISCKGSGYSFQSYWIAWVRQMPGKGLEWMGIIYPGDSDTRYSPSFQGQVTISADKSISTAYLQWSSLKASDTAMYFCARGRTFYYDSSDYFDYWGQGTLVTVSS VL: DIQMTQSPSSVSASVGDRVTITCRASQGISSWLAWYQQKPGKAPKLLIYAASSLANGVPSRFSGSGSGTDFTLTISSLQPEDFATYFCQQADSYPRTFGQGTKLEIK	5.48	5.41	4.88
6E7 antibody affinity modulation variant V49 (antibody, V domains shown) VH: EVQLVQSGAEVKKPGESLKISCKGSGYSFNSYWIAWVRQMPGKGLEWMGTIYPGDSDTRLSPSFQGQVTISADKSISTAYLQWSSLKASDTAMYFCARSRTFYYDSSDYFDYWGQGTLVTVSS VL: DIQMTQSPSSVSASVGDRVTITCRASQGISSWLAWYQQKPGKAPKLLIYAASSRQNGVPSRFSGSGSGTDFTLTISSLQPEDFATYFCQQADSYPRTFGQGTKLEIK	6.58	6.51	5.02
6E7 antibody affinity modulation variant V65 (antibody, V domains shown) VH: EVQLVQSGAEVKKPGESLKISCKGSGYSFTSYWIAWVRQMPGKGLEWMGIIYPGDSDTRYSPSFQGQVTISADKSISTAYLQWSSLKASDTAMYFCARSRTFYYDSSDYFDYWGQGTLVTVSS VL: DIQMTQSPSSVSASVGDRVTITCRASQGISSWLAWYQQKPGKAPKLLIYAASSLQNGVPSRFSGSGSGTDFTLTISSLQPEDFATYFCQQADSFPRTFGQGTKLEIK	2.75	2.05	1.29
6E7 antibody affinity modulation variant V48 (antibody, V domains shown) VH: EVQLVQSGAEVKKPGESLKISCKGSGYSFGSYWIAWVRQMPGKGLEWMGIIYPGDSDVRYSPSFQGQVTISADKSISTAYLQWSSLKASDTAMYFCARMRTFYYDSSDYFDYWGQGTLVTVSS VL: DIQMTQSPSSVSASVGDRVTITCRASQGISSWLAWYQQKPGKAPKLLIYAASSLQTGVPSRFSGSGSGTDFTLTISSLQPEDFATYFCQQADSLPRTFGQGTKLEIK	2.54	2.42	2.3

Further lines, results first:

Binding Signal (fold over 6E7 parental antibody) [1] [fold]	Binding Signal (fold over 6E7 parental antibody) [2] [fold]	Binding Signal (fold over 6E7 parental antibody) [3] [fold]	Binder
3.71	3.76	4.91	6E7 antibody affinity modulation variant V63 (antibody, V domains shown) VH: EVQLVQSGAEVKKPGESLKISCKGSGYSFRSYWIAWVRQMPGKGLEWMGIIYPGDSDTRYSPSFQGQVTISADKSISTAYLQWSSLKASDTAMYFCARSRTFYYDSSDYFDYWGQGTLVTVSS VL: DIQMTQSPSSVSASVGDRVTITCRASQGISSWLAWYQQKPGKAPKLLIYAASSLQRGVPSRFSGSGSGTDFTLTISSLQPEDFATYFCQQADRFPRTFGQGTKLEIK
1.17	1.25	0.66	6E7 antibody affinity modulation variant V53 (antibody, V domains shown) VH: EVQLVQSGAEVKKPGESLKISCKGSGYSFTSYWIAWVRQMPGKGLEWMGIIYPGDSDTRYSPHFQGQVTISADKSISTAYLQWSSLKASDTAMYFCARQRTFYYDSSDYFDYWGQGTLVTVSS VL: DIQMTQSPSSVSASVGDRVTITCRASQGISSWLAWYQQKPGKAPKLLIYAASSLQNGVPSRFSGSGSGTDFTLTISSLQPEDFATYFCQQADSFPRTFGQGTKLEIK
3.18	2.81	1.83	6E7 antibody affinity modulation variant V51 (antibody, V domains shown) VH: EVQLVQSGAEVKKPGESLKISCKGSGYSFTSYWIAWVRQMPGKGLEWMGIIYPGDSDVRYSPSFQGQVTISADKSISTAYLQWSSLKASDTAMYFCARGRTFYYDSSDYFDNWGQGTLVTVSS VL: DIQMTQSPSSVSASVGDRVTITCRASQGISSWLAWYQQKPGKAPKLLIYAASSRQNGVPSRFSGSGSGTDFTLTISSLQPEDFATYFCQQADSFPRTFGQGTKLEIK
4.52	4.64	3.74	6E7 antibody affinity modulation variant V75 (antibody, V domains shown) VH: EVQLVQSGAEVKKPGESLKISCKGSGYSFTSYWIAWVRQMPGKGLEWMGIIYPGDSDTRYSPSFQGQVTISADKSISTAYLQWSSLKASDTAMYFCARGRTFYYDSSDYFDYWGQGTLVTVSS VL: DIQMTQSPSSVSASVGDRVTITCRASQGISSWLAWYQQKPGKAPKLLIYAASSLQAGVPSRFSGSGSGTDFTLTISSLQPEDFATYFCQQADSYPRTFGQGTKLEIK
2.89	2.49	1.87	6E7 antibody affinity modulation variant V62 (antibody, V domains shown) VH: EVQLVQSGAEVKKPGESLKISCKGSGYSFGSYWIAWVRQMPGKGLEWMGIIYPGDSDTRYAPSFQGQVTISADKSISTAYLQWSSLKASDTAMYFCARQRTFYYDSSGYFDYWGQGTLVTVSS VL: DIQMTQSPSSVSASVGDRVTITCRASQGISSWLAWYQQKPGKAPKLLIYAASSLQRGVPSRFSGSGSGTDFTLTISSLQPEDFATYFCGQADSFPRTFGQGTKLEIK
5.44	5.12	4.17	6E7 antibody affinity modulation variant V73 (antibody, V domains shown) VH: EVQLVQSGAEVKKPGESLKISCKGSGYSFGSYWIAWVRQMPGKGLEWMGIIYPGDSDTRYSPGFQGQVTISADKSISTAYLQWSSLKASDTAMYFCARGRTFYYDSSDYFDYWGQGTLVTVSS VL: DIQMTQSPSSVSASVGDRVTITCRASQGISSWLAWYQQKPGKAPKLLIYAASSRQNGVPSRFSGSGSGTDFTLTISSLQPEDFATYFCQQADSYPRTFGQGTKLEIK
3.63	3.26	3.35	6E7 antibody affinity modulation variant V60 (antibody, V domains shown) VH: EVQLVQSGAEVKKPGESLKISCKGSGYHFTSYWIAWVRQMPGKGLEWMGIIYPGDSDVRYSPSFQGQVTISADKSISTAYLQWSSLKASDTAMYFCARQRTFYYDSSDYSDYWGQGTLVTVSS VL: DIQMTQSPSSVSASVGDRVTITCRASQGISSWLAWYQQKPGKAPKLLIYAASSLQRGVPSRFSGSGSGTDFTLTISSLQPEDFATYFCGQADSFPRTFGQGTKLEIK
2.9	2.55	2.23	6E7 antibody affinity modulation variant V2 (antibody, V domains shown) VH: EVQLVQSGAEVKKPGESLKISCKGSGSSFTSYWIAWVRQMPGKGLEWMGIIYPGDGDTRYSPSFQGQVTISADKSISTAYLQWSSLKASDTAMYFCARSRTFYYDSSDYFDYWGQGTLVTVSS VL: DIQMTQSPSSVSASVGDRVTITCRASQGISSWLAWYQQKPGKAPKLLIYAASSRQNGVPSRFSGSGSGTDFTLTISSLQPEDFATYFCQQADRFPRTFGQGTKLEIK
4.16	4.1	3.39	6E7 antibody affinity modulation variant V50 (antibody, V domains shown) VH: EVQLVQSGAEVKKPGESLKISCKGSGYSFGSYWIAWVRQMPGKGLEWMGVIYPGDSDTRYSPSFQGQVTISADKSISTAYLQWSSLKASDTAMYFCARQRTFYYDSSDYLDYWGQGTLVTVSS VL: DIQMTQSPSSVSASVGDRVTITCRASQGISSWLAWYQQKPGKAPKLLIYAASSRQNGVPSRFSGSGSGTDFTLTISSLQPEDFATYFCQQADSLPRTFGQGTKLEIK
5.22	5.08	3.63	6E7 antibody affinity modulation variant V61 (antibody, V domains shown) VH: EVQLVQSGAEVKKPGESLKISCKGSGYSFSSYWIAWVRQMPGKGLEWMGIIYPGDSDTRYNPSFQGQVTISADKSISTAYLQWSSLKASDTAMYFCARGRTFYYDSSDYFDYWGQGTLVTVSS VL: DIQMTQSPSSVSASVGDRVTITCRASQGISSWLAWYQQKPGKAPKLLIYAASSLVNGVPSRFSGSGSGTDFTLTISSLQPEDFATYFCQQADSLPRTFGQGTKLEIK
